± gives the uncertainty stated by the source.
B1: SWI/SNF-related matrix-associated actin-dependent regulator of chromatin subfamily B member 1, residues 181 to 248; numbered along this chain, Q12824 (parent)
chain: SQPEVLVPIRLDMEIDGQKLRDAFTWNMNEKLMTPEMFSEILCDDLDLNPLTFVPAIASAIRQQIESY

Variants of: B1
Test: abundance fitness (aPCA) (normalised: wild type 0, dead -1); higher = more abundant; growth selection in yeast, the domain comes from the species named
Details: Homo sapiens

| Variant | abundance fitness |
| --- | --- |
| SQPEVLVPIRLDMEIDGQKLRDAFTWNMNEKLMTPEMFSEILCDDLDLNCLTFVPAIASAIRQQIESY [P50C] | -0.751 ± 0.49 |
| SQPEVLVPIRLDMEIDGQKLRDAFTWNMNEKLMTPEMFSEILCDDLDLNALTFVPAIASAIRQQIESY [P50A] | -0.292 ± 0.06 |
| SQPEVLVPIRLDMEIDGQKLRDAFTWNMNEKLMTPEMFSEILCDDLDWNPLTFVPAIASAIRQQIESY [L48W] | -0.888 ± 0.18 |
| SQPEVLVPIRLDMEIDGQKLRDAFTWNMNEKLMTPEMFSEILCDDLDANPLTFVPAIASAIRQQIESY [L48A] | -0.857 ± 0.1 |
| SQPEVLVPIRLDMEIDGQKLRDAFTWNMNEKLMTPEMFSEILCDDLDYNPLTFVPAIASAIRQQIESY [L48Y] | -0.649 ± 0.21 |
| SQPEVLVPIRLDMEIDGQKLRDAFTWNMNEKLMTPEMFSEILCDDLDFNPLTFVPAIASAIRQQIESY [L48F] | -0.656 ± 0.17 |
| SQPEVLVPIRLDMEIDGQKLRDAFTWNMNEKLMTPEMFSEILCDDLDENPLTFVPAIASAIRQQIESY [L48E] | -0.678 ± 0.16 |
| SQPEVLVPIRLDMEIDGQKLRDAFTWNMNEKLMTPEMFSEILCDDLDGNPLTFVPAIASAIRQQIESY [L48G] | -0.66 ± 0.077 |
| SQPEVLVPIRLDMEIDGQKLRDAFTWNMNEKLMTPEMFSEILCDDLDINPLTFVPAIASAIRQQIESY [L48I] | -0.147 ± 0.14 |
| SQPEVLVPIRLDMEIDGQKLRDAFTWNMNEKLMTPEMFSEILCDDLDCNPLTFVPAIASAIRQQIESY [L48C] | -0.374 ± 0.079 |
| SQPEVLVPIRLDMEIDGQKLRDAFTWNMNEKLMTPEMFSEILCDDLDDNPLTFVPAIASAIRQQIESY [L48D] | -0.785 ± 0.2 |
| SQPEVLVPIRLDMEIDGQKLRDAFTWNMNEKLMTPEMFSEILCDDLDPNPLTFVPAIASAIRQQIESY [L48P] | -0.873 ± 0.18 |
| SQPEVLVPIRLDMEIDGQKLRDAFTWNMNEKLMTPEMFSEILCDDLDNNPLTFVPAIASAIRQQIESY [L48N] | -0.664 ± 0.17 |
| SQPEVLVPIRLDMEIDGQKLRDAFTWNMNEKLMTPEMFSEILCDDLDRNPLTFVPAIASAIRQQIESY [L48R] | -0.989 ± 0.21 |
| SQPEVLVPIRLDMEIDGQKLRDAFTWNMNEKLMTPEMFSEILCDDLDVNPLTFVPAIASAIRQQIESY [L48V] | -0.554 ± 0.071 |
| SQPEVLVPIRLDMEIDGQKLRDAFTWNMNEKLMTPEMFSEILCDDLDHNPLTFVPAIASAIRQQIESY [L48H] | -0.722 ± 0.18 |
| SQPEVLVPIRLDMEIDGQKLRDAFTWNMNEKLMTPEMFSEILCDDLDKNPLTFVPAIASAIRQQIESY [L48K] | -0.651 ± 0.12 |
| SQPEVLVPIRLDMEIDGQKLRDAFTWNMNEKLMTPEMFSEILCDDLDSNPLTFVPAIASAIRQQIESY [L48S] | -0.659 ± 0.072 |
| SQPEVLVPIRLDMEIDGQKLRDAFTWNMNEKLMTPEMFSEILCDDLNLNPLTFVPAIASAIRQQIESY [D47N] | -0.107 ± 0.069 |
| SQPEVLVPIRLDMEIDGQKLRDAFTWNMNEKLMTPEMFSEILCDDLKLNPLTFVPAIASAIRQQIESY [D47K] | 0.093 ± 0.063 |

| Variant | abundance fitness |
| --- | --- |
| SQPEVLVPIRLDMEIDGQKLRDAFTWNMNEKLMTPEMFSEILCDDLLLNPLTFVPAIASAIRQQIESY [D47L] | -0.425 ± 0.056 |
| SQPEVLVPIRLDMEIDGQKLRDAFTWNMNEKLMTPEMFSEILCDDLHLNPLTFVPAIASAIRQQIESY [D47H] | -0.018 ± 0.053 |
| SQPEVLVPIRLDMEIDGQKLRDAFTWNMNEKLMTPEMFSEILCDDLYLNPLTFVPAIASAIRQQIESY [D47Y] | -0.401 ± 0.12 |
| SQPEVLVPIRLDMEIDGQKLRDAFTWNMNEKLMTPEMFSEILCDDLSLNPLTFVPAIASAIRQQIESY [D47S] | -0.101 ± 0.048 |
| SQPEVLVPIRLDMEIDGQKLRDAFTWNMNEKLMTPEMFSEILCDDLPLNPLTFVPAIASAIRQQIESY [D47P] | -0.799 ± 0.16 |
| SQPEVLVPIRLDMEIDGQKLRDAFTWNMNEKLMTPEMFSEILCDDLTLNPLTFVPAIASAIRQQIESY [D47T] | -0.37 ± 0.059 |
| SQPEVLVPIRLDMEIDGQKLRDAFTWNMNEKLMTPEMFSEILCDDLGLNPLTFVPAIASAIRQQIESY [D47G] | 0.053 ± 0.038 |
| SQPEVLVPIRLDMEIDGQKLRDAFTWNMNEKLMTPEMFSEILCDDLMLNPLTFVPAIASAIRQQIESY [D47M] | -0.265 ± 0.05 |
| SQPEVLVPIRLDMEIDGQKLRDAFTWNMNEKLMTPEMFSEILCDDLWLNPLTFVPAIASAIRQQIESY [D47W] | -0.507 ± 0.12 |
| SQPEVLVPIRLDMEIDGQKLRDAFTWNMNEKLMTPEMFSEILCDDLCLNPLTFVPAIASAIRQQIESY [D47C] | -0.305 ± 0.057 |
| SQPEVLVPIRLDMEIDGQKLRDAFTWNMNEKLMTPEMFSEILCDDLVLNPLTFVPAIASAIRQQIESY [D47V] | -0.542 ± 0.073 |
| SQPEVLVPIRLDMEIDGQKLRDAFTWNMNEKLMTPEMFSEILCQDLDLNPLTFVPAIASAIRQQIESY [D44Q] | -0.028 ± 0.11 |
| SQPEVLVPIRLDMEIDGQKLRDAFTWNMNEKLMTPEMFSEILCSDLDLNPLTFVPAIASAIRQQIESY [D44S] | 0.043 ± 0.1 |
| SQPEVLVPIRLDMEIDGQKLRDAFTWNMNEKLMTPEMFSEILCVDLDLNPLTFVPAIASAIRQQIESY [D44V] | -0.008 ± 0.27 |
| SQPEVLVPIRLDMEIDGQKLRDAFTWNMNEKLMTPEMFSEILCMDLDLNPLTFVPAIASAIRQQIESY [D44M] | -0.473 ± 0.26 |
| SQPEVLVPIRLDMEIDGQKLRDAFTWNMNEKLMTPEMFSEILCKDLDLNPLTFVPAIASAIRQQIESY [D44K] | 0.177 ± 0.17 |
| SQPEVLVPIRLDMEIDGQKLRDAFTWNMNEKLMTPEMFSEILCNDLDLNPLTFVPAIASAIRQQIESY [D44N] | -0.403 ± 0.47 |
| SQPEVLVPIRLDMEIDGQKLRDAFTWNMNEKLMTPEMFSEILCIDLDLNPLTFVPAIASAIRQQIESY [D44I] | -0.259 ± 0.17 |
| SQPEVLVPIRLDMEIDGQKLRDAFTWNMNEKLMTPEMFSEILCLDLDLNPLTFVPAIASAIRQQIESY [D44L] | -0.251 ± 0.11 |

— the Human Domainome abundance scans (Beltran et al. 2025)
